B1: ADP-ribosylation factor-like protein 6 (Homo sapiens), Q9H0F7 (parent)
chain: MGLLDRLSVLLGLKKKEVHVLCLGLDNSGKTTIINKLKPSNAQSQNILPTIGFSIEKFKSSSLSFTVFDMSGQGRYRNLWEHYYKEGQAIIFVIDSSDRLRMVVAKEELDTLLNHPDIKHRRIPILFFANKMDLRDAVTSVKVSQLLCLENIKDKPWHICASDAIKGEGLQEGVDWLQDQIQTVKT
partner: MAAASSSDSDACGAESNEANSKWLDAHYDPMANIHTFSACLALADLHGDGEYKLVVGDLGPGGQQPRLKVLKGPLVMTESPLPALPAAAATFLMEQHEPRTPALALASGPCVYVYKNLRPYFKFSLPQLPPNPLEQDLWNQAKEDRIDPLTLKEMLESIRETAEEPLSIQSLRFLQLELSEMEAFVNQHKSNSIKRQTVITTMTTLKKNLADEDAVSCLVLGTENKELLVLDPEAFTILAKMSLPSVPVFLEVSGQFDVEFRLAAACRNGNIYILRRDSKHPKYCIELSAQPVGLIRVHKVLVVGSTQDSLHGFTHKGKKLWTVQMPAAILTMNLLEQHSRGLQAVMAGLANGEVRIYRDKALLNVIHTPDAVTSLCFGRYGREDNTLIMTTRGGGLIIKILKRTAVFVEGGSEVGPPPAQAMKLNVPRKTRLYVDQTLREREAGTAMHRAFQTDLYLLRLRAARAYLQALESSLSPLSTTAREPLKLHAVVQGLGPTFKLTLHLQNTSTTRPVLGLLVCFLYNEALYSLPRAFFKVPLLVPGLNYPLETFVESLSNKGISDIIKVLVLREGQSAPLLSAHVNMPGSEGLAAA
B2: Somatostatin receptor type 3 (Mus musculus), P30935 (parent)
chain: MATVTYPSSEPTTLDPGNASSTWPLDTTLGNTSAGASLTGLAVSGILISLVYLVVCVVGLLGNSLVIYVVLRHTSSPSVTSVYILNLALADELFMLGLPFLAAQNALSYWPFGSLMCRLVMAVDGINQFTSIFCLTVMSVDRYLAVVHPTRSARWRTAPVARTVSAAVWVASAVVVLPVVVFSGVPRGMSTCHMQWPEPAAAWRTAFIIYTAALGFFGPLLVICLCYLLIVVKVRSTTRRVRAPSCQWVQAPACQRRRRSERRVTRMVVAVVALFVLCWMPFYLLNIVNVVCPLPEEPAFFGLYFLVVALPYANSCANPILYGFLSYRFKQGFRRILLRPSRRIRSQEPGSGPPEKTEEEEDEEEEERREEEERRMQRGQEMNGRLSQIAQAGTSGQQPRPCTGTAKEQQLLPQEATAGDKASTLSHL
partner: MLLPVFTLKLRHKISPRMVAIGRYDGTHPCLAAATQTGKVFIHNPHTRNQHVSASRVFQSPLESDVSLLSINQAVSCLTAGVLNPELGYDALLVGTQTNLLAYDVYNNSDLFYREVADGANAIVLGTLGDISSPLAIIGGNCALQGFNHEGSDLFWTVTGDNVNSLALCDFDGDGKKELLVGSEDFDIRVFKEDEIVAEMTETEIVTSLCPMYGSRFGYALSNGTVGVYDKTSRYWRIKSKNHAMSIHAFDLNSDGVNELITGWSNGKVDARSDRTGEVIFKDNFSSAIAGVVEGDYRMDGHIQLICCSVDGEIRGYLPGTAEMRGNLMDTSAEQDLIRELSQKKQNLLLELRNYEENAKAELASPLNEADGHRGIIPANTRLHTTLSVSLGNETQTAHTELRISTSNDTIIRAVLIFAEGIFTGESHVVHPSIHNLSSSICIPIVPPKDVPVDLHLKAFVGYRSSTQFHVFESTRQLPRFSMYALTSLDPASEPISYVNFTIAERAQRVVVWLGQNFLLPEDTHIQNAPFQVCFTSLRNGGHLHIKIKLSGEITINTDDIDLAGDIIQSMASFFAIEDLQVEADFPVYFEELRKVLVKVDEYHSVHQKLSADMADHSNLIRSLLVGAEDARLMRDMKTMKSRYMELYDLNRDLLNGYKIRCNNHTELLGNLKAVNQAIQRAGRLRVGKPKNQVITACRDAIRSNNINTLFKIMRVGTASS

Variants of: B1
Details: with bbs1_human BBS1, Q8NFJ9

Row | effect of a mutation on the interaction | Variant
1 | increasing interaction | Q73L

Variants of: B2
Details: with bbs2_human BBS2, Q9BXC9

Row | effect of a mutation on the interaction | Variant
2 | increasing interaction | A243F;Q247F
3 | increasing interaction | P244A;Q247A
4 | disrupting interaction | C246A
5 | decreasing interaction | C246A;Q247A
6 | increasing interaction | Q247A
